Numbering of substitutions follows the chain as printed. Like-named read-outs stand apart in the source and are kept apart here.
T1: Staphylocoagulase fragment SC(1-246), unlabeled (Staphylococcus aureus, UniProt P17855 27-272)
T1 sequence: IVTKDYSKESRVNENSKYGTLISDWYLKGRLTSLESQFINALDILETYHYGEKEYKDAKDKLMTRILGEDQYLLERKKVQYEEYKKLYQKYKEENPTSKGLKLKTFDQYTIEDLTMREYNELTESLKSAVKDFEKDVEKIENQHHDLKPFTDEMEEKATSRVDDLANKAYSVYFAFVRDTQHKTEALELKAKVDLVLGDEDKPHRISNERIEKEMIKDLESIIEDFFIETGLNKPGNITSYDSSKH

T2: BODIPY-labeled staphylocoagulase SC (S7C)(1-325) (Staphylococcus aureus, UniProt P17855 27-351)
T2 sequence: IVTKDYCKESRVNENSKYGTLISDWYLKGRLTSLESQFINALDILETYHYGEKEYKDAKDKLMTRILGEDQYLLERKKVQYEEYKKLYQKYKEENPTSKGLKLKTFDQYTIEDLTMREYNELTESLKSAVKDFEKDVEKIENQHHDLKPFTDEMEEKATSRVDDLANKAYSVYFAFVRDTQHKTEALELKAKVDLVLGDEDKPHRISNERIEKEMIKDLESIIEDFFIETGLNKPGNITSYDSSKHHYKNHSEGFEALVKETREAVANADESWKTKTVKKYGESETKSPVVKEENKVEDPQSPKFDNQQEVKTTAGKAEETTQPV

T3: SC-(1-325), unlabeled (Staphylococcus aureus, UniProt P17855 27-351)
T3 sequence: T2 sequence with C7S

T4: vWbp-(1-474) (Staphylococcus aureus)
T4 chain: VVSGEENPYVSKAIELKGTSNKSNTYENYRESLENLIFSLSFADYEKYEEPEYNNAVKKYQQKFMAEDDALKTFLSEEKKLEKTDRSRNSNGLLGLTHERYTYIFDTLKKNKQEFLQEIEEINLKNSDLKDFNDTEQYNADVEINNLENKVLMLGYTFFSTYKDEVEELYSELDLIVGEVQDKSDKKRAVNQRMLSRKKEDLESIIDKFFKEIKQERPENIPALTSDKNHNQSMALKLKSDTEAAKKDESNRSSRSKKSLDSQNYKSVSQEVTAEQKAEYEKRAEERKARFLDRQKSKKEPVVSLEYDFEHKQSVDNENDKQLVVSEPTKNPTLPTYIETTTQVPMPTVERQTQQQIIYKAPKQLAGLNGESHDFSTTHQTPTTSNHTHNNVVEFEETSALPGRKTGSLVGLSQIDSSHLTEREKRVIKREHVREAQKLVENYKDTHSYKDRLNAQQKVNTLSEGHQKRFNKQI

T5: vWbp-(1-263) (Staphylococcus aureus)
T5 chain: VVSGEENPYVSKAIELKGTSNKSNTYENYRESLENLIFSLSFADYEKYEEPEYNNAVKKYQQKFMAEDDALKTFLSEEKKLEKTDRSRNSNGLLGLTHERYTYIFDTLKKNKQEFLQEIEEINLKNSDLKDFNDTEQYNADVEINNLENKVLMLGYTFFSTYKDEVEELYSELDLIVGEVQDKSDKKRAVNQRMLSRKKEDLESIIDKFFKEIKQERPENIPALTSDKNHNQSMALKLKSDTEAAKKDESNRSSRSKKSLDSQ

B1: GMA-2105 murine anti-staphylocoagulase monoclonal antibody (antibody, V domains shown)
VH: EVKLEESGGGLVQPGGSMKLSCAASGFTFSDAWMDWVRQSPEKGLEWVAEIRTKANNHATYYAESVKGRFTISRDDSKSSVYLQMNSLRAEDTGIYYCTNVYYGNNDVKDYWGQGTSVTVSP
VL: DIVMTQSQKFMSTSVGDRVSVTCKASQNVDIYVAWYQQKPGQSPKALIYSASYRFSGVPDRFTGSGSGTDFTLSISNVQSEDLAEYFCQQYNNYPYTFGGGTKLEIKR
notes: also called 2A1.5H4.B7; anti-SC Ab
B2: Chimeric GMA-2105 (mouse variable regions on human constant regions) (antibody, V domains shown)
VH: B1 VH
VL: B1 VL
B3: GMA-2500 murine anti-vWbp monoclonal antibody (antibody, V domains shown)
VH: EVQLQQSGTVLARPGASVKMSCKTSGYSFTSYWIHWVKQRPGQGLEWIGAISPGNSDTNYNQNFKGKAKLTAVTSASTAYMELSSLTTEDSAVYYCATGSHYWGQGTTLSVSS
VL: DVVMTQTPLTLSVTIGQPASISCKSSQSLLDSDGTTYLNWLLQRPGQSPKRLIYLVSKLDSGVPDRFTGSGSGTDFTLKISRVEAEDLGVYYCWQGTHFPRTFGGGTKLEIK
notes: also called 10C9.D1.B6

Legend:
[1] = biological target: T1, Staphylocoagulase fragment SC(1-246), …
Mutated Peptide Ala 8 = Mutated Peptide Ala 8 (Staphylococcus aureus); assay: solid phase competitive inhibition ELISA
[2] = biological target: Mutated Peptide Ala 8 & 9 (Staphylococcus aureus); assay: solid phase competitive inhibition ELISA
Mutated Peptide Ala 9 = Mutated Peptide Ala 9 (Staphylococcus aureus); assay: solid phase competitive inhibition ELISA
[3] = biological target: T2, BODIPY-labeled staphylocoagulase SC …; assay: equilibrium titration in solution, increase in BODIPY fluorescence, quadratic binding equation
[4] = biological target: T2, BODIPY-labeled staphylocoagulase SC …; assay: equilibrium titration in solution, increase in BODIPY fluorescence
[5] = biological target: T2, BODIPY-labeled staphylocoagulase SC …
[6] = biological target: T1, Staphylocoagulase fragment SC(1-246), …; assay: competitive displacement of BODIPY-labeled staphylocoagulase from GMA-2105 in solution, fluorescence
[7] = biological target: T2, BODIPY-labeled staphylocoagulase SC …; assay: fit of the fluorescence titrations; row 'Probe SC(1-246) S7C-BodipyFL'
SC-(1-325), unlabeled = biological target: T3, SC-(1-325), unlabeled; assay: Western blot of recombinant proteins; by the text, primary antibody at 10 µg/mL, HRP anti-mouse IgG, chemiluminescence
Text: The elaborated proteins were transferred to PVDF membrane for western blot analysis to probe the specificity and cross-reactivity of the monoclonal antibodies targeting the critical N-termini of either SC or vWbp. […] Following primary antibody treatment, blots were washed and probed with horseradish peroxidase-labeled rabbit anti-mouse IgG that lacked the constant region and then imaged for chemiluminescence substrate oxidation using a Fuji-Films LAS1000. The blot was stripped between primary antibody challenges. […] To accomplish this, the blot was probed with the both the SC and vWbp neutralizing antibodies and then stained for total mouse IgG content using an anti-mouse IgG (H+L)-FITC polyclonal antibody.

vWbp-(1-474) = biological target: T4, vWbp-(1-474); assay: Western blot of recombinant proteins, probed with GMA-2105
vWbp-(1-263) [8] = biological target: T5, vWbp-(1-263); assay: as above
[9] = biological target: T2, BODIPY-labeled staphylocoagulase SC …; assay: fluorescence titration of BODIPY-SC(S7C)(1-325) with GMA-2105
[10] = biological target: T2, BODIPY-labeled staphylocoagulase SC …; assay: fluorescence titration of BODIPY-labeled SC(1-325) with chimeric GMA-2105
vWbp-(1-263) [11] = biological target: T5, vWbp-(1-263); assay: ELISA: purified GMA-2500 on the preparation 'vWbp 1-263 022109, RIF 0540E', A490
vWbp-(1-263) [12] = biological target: T5, vWbp-(1-263); assay: ELISA: purified GMA-2500 on the preparation 'vWbp 1-263 WT 011113, RIF0540D', A490
[13] = biological target: vWbp peptide vWbp(1-12) conjugated to ovalbumin (Staphylococcus aureus); assay: ELISA: purified GMA-2500 on vWbp peptide-ovalbumin, A490
[14] = biological target: vWbp peptide vWbp(1-12), […], unconjugated (Staphylococcus aureus); assay: ELISA, unconjugated peptide

| Binder | Kd [1] [nM] | Stoichiometry (mol mAb / mol wild type) [1] [mol mAb / mol wild type] | binding result (Mutated Peptide Ala 8) | binding result [2] | binding result (Mutated Peptide Ala 9) | Kd [3] [nM] | stoichiometry [4] | Kd [5] [nM] | Kd [6] [nM] | Kd [7] [nM] | Stoichiometry (mol mAb / mol probe) [7] [mol mAb / mol probe] | binding result (SC-(1-325), unlabeled) | binding result (vWbp-(1-474)) | binding result (vWbp-(1-263) [8]) | stoichiometry [9] | stoichiometry [10] | EC50 (read off the curve) (vWbp-(1-263) [11]) [µg/mL] | EC50 (read off the curve) (vWbp-(1-263) [12]) [µg/mL] | EC50 (read off the curve) [13] [µg/mL] | binding result [14] |
| --- | --- | --- | --- | --- | --- | --- | --- | --- | --- | --- | --- | --- | --- | --- | --- | --- | --- | --- | --- | --- |
| B1 | 0.71 | 1.2 | binds | binds | binds | 2 | 1.6 mol BODIPY-SC/mol GMA-2105 | 0.99 | 4 | 1.09 | 0.99 | binds | no binding (tested: 10 µg/mL (from the text)) | no binding (tested: 10 µg/mL (from the text)) | 2 mol staphylocoagulase/mol GMA-2105 |  |  |  |  |  |
| B2 | 0.75 | 1.35 |  |  |  |  |  |  |  | 0.79 | 0.94 |  |  |  |  | 2 mol staphylocoagulase/mol chimeric antibody |  |  |  |  |
| B3 |  |  |  |  |  |  |  |  |  |  |  |  |  |  |  |  | ~0.1 | ~0.1 | ~0.1 | binds |

Reference: US20210079071A1 (published 2021)
